{"source": "patent US20230120677", "molecular_target": "Clover-SNAP-25-mRuby2 FRET sensor (UniProt P60880)", "sequence (P60880 whole entry, looked up)": "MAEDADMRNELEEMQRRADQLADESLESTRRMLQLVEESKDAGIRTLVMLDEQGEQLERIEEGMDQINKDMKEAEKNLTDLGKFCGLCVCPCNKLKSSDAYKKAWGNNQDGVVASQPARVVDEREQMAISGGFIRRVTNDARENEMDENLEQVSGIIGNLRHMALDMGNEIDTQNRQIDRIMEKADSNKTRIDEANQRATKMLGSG"}
{"substance": "WT tALC (truncated wild-type BoNT/A-LC, residues 1-424)", "values": [{"measurement": "% activity relative to WT tALC", "value": 100, "unit": "%"}, {"measurement": "dynamic range in FRET upon SNAP-25 cleavage", "value": "6-fold emission ratio in 30 minutes"}]}
